Assay results taken from publication PMC11186044, “Rationally Engineering pH Adaptation of Acid‐Induced Arginine Decarboxylase from Escherichia coli to Alkaline Environments to Efficiently Biosynthesize Putrescine” (Advanced Science, 2024).
Numbering of substitutions follows the chain as printed. Names may count otherwise.

B1: AdiA (Escherichia coli K-12) (protein)
chain: MKVLIVESEFLHQDTWVGNAVERLADALSQQNVTVIKSTSFDDGFAILSSNEAIDCLMFSYQMEHPDEHQNVRQLIGKLHERQQNVPVFLLGDREKALAAMDRDLLELVDEFAWILEDTADFIAGRAVAAMTRYRQQLLPPLFSALMKYSDIHEYSWAAPGHQGGVGFTKTPAGRFYHDYYGENLFRTDMGIERTSLGSLLDHTGAFGESEKYAARVFGADRSWSVVVGTSGSNRTIMQACMTDNDVVVVDRNCHKSIEQGLMLTGAKPVYMVPSRNRYGIIGPIYPQEMQPETLQKKISESPLTKDKAGQKPSYCVVTNCTYDGVCYNAKEAQDLLEKTSDRLHFDEAWYGYARFNPIYADHYAMRGEPGDHNGPTVFATHSTHKLLNALSQASYIHVREGRGAINFSRFNQAYMMHATTSPLYAICASNDVAVSMMDGNSGLSLTQEVIDEAVDFRQAMARLYKEFTADGSWFFKPWNKEVVTDPQTGKTYDFADAPTKLLTTVQDCWVMHPGESWHGFKDIPDNWSMLDPIKVSILAPGMGEDGELEETGVPAALVTAWLGRHGIVPTRTTDFQIMFLFSMGVTRGKWGTLVNTLCSFKRHYDANTPLAQVMPELVEQYPDTYANMGIHDLGDTMFAWLKENNPGARLNEAYSGLPVAEVTPREAYNAIVDNNVELVSIENLPGRIAANSVIPYPPGIPMLLSGENFGDKNSPQVSYLRSLQSWDHHFPGFEHETEGTEIIDGIYHVMCVKA
notes: recombinant full-length acid-induced arginine decarboxylase; homodecamer (five dimers) with PLP; plasmids in supplement
B2: AdiA (Escherichia coli K-12; E467K) (protein)
chain: B1 chain with E467K
notes: as for B1
B3: AdiA (Escherichia coli K-12; H736E) (protein)
chain: B1 chain with H736E
notes: as for B1
B4: AdiA (Escherichia coli K-12; E467K/H736E) (protein)
chain: B1 chain with E467K, H736E
notes: as for B1

What was measured:
SpeB = biological target: T1, SpeB (Escherichia coli, UniProt P60651); assay: agmatinase activity versus pH (details in supplement); type: biochemical; details: alkaline pH preferred; enzyme preparation not given
T1 construct: agmatinase; construct and assay details only in supplement
T1 sequence (P60651 1-306): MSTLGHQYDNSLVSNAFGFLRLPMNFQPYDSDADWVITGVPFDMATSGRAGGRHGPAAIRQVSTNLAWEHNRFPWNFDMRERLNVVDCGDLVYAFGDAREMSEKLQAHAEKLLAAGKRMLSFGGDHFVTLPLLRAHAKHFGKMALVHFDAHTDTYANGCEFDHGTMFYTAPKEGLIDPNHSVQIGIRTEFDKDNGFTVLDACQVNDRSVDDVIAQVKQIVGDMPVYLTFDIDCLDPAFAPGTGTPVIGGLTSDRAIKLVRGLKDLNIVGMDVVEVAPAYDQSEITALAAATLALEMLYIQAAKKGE

[1] = substrate: N=C(N)NCCC[C@H](N)C(=O)O; assay: agmatine formation by HPLC, Michaelis-Menten fit; type: biochemical, Escherichia coli; details: pH 7.0, 37 °C, 0.5 mmol·L^−1 PLP, 2.5 mmol·L^−1 MgSO4, 5 mmol·L^−1 DTT
Description: agmatine formation by HPLC, Michaelis-Menten fit on AdiA

Molecule | agmatinase activity versus pH (details in supplement) (SpeB) | Km [1] | kcat [1] | kcat/Km [1]
N=C(N)NCCCCN [agmatine] | SpeB, agmatinase that catalyzes the synthesis of putrescine from agmatine |  |  | 
B1 |  | 12.08 ± 0.86 mM | 3.54 ± 0.28 s⁻¹ | 290 M⁻¹ s⁻¹
B2 |  | 14.30 ± 0.64 mM | 15.2 ± 0.23 s⁻¹ | 1060 M⁻¹ s⁻¹
B3 |  | 15.27 ± 0.79 mM | 17.5 ± 0.55 s⁻¹ | 1150 M⁻¹ s⁻¹
B4 |  | 15.70 ± 0.87 mM | 29.2 ± 0.44 s⁻¹ | 1860 M⁻¹ s⁻¹
